Test results as given in patent publication US10874712B2, “Methods, compounds and compositions for modulating blood brain barrier integrity and re-myelination” (University Health Network, priority 2015, dated 2020).

What was measured:
[1] = system: splenocytes and lymph node cells of EAE-induced mice; assay: Flow cytometry of splenocytes and lymph node cells of treated EAE mice; type: in vivo, mouse
Procedure: Mice were euthanized at day 10 post-induction of EAE. Freshly isolated spleens and draining caudal lymph nodes (LN) were pressed using a syringe plunger through a 70 μm cell strainers and washed twice using 2 mL of 2% FBS in complete RPMI-1640 medium (Invitrogen) supplemented with […], L-glutamine, p/s, and non-essential amino acids. Single-cell suspensions were lysed with 7 mL of red blood cell (RBC) lysing buffer (Life Technologies) and centrifuged at 700 rcf for 5 mins. After washing three times with 2% RPMI-1640 medium, cells were counted and cultured as described below or were subjected to cell surface staining.
The expression of cell-surface markers and cytokine expression on splenocytes and LN cells were characterized by flow cytometry. For analysis of naïve cells, 5×10^5 RBC depleted splenocytes and LN cells were plated in 96-well V-bottom plates (Starstedt) and blocked with 50 μl of 1% mouse IgG in 2% FBS PBS supplemented with azide (PFN3) for 20 min at 4° C. Cells were then stained with the following primary conjugated antibodies from BioLegend for 30 min on ice: CD5 (53-7.3), CD3 (145-2C11), CD4 (GK1.5), CD8 (53-6.7), CD19 (6D5), CD11b (M1/70), CD11c (N418), CD80 (16-10A1), CD86 (GL-1), CD44 (IM7), MHCII (M5/114.15.12), CD62L (MEL-14), ICAM-1/CD54 (3E2), IL-17A (TC11-18H10.41), IFN-γ (XMG1.2). All antibodies were re-suspended in PFN3. When required, cells were washed twice with 100 μl of PFN3 and stained with secondary SA-APC, SA-APC-Cy7, SA-PeCy7, or SA-Percp-Cy5.5 for 30 min on ice. Cells were then washed twice with PFN3 and re-suspended in a PFN3 solution containing propidium iodide (PI) before proceeding to FACS analysis.
To examine intracellular cytokine production, 0.5×10^6 RBC-depleted splenocytes and LN cells were plated on 96-well flat bottom plates (BD Biosciences) in 10% FBS in complete RPMI-1640 in the presence of 0.5 μg/mL phorbol 12-myrisate 13-acetate (PMA), 0.5 μg/mL Ionomycin, and Golgistop (BD Biosciences) for 4 h. Cells were subsequently washed in PBS and stained with Near-Infrared Live Dead (Life Technologies) as described in the manufacturer's protocol. Cells were then washed twice in PFN3 and stained for cell surface markers as described previously. Cells were then fixed with 100 μl of Cytofix/Cytoperm solution as per manufacturer's protocol. For intracellular staining, cells were then stained with anti-IL-17A, and anti-IFN-γ for 30 min on ice, washed twice, and re-suspended in PFN3 before proceeding to FACS acquisition. Nonspecific background staining was determined by using fluorochrome-matched isotype antibodies and fluorescence minus one control. […] For each experiment, at least 100,000 live events were acquired and analyzed using Flowjo software (Tree Star Inc.).

[2] = target: T1, Neogenin (Homo sapiens, UniProt Q92859); assay: In vitro competition binding assay (AP-tagged proteins); settings: competition assay, FIG. 6C
T1 construct: His-tagged proteins (2.5 μg/mL of extracellular-Neogenin or sRGMa or sRGMc) were then coated onto each well; His tag (coated format); Alkaline phosphatase (AP) fusion (solution format, Ec-Neogenin-AP); made in house
T1 sequence (Q92859 34-1105 limits assumed): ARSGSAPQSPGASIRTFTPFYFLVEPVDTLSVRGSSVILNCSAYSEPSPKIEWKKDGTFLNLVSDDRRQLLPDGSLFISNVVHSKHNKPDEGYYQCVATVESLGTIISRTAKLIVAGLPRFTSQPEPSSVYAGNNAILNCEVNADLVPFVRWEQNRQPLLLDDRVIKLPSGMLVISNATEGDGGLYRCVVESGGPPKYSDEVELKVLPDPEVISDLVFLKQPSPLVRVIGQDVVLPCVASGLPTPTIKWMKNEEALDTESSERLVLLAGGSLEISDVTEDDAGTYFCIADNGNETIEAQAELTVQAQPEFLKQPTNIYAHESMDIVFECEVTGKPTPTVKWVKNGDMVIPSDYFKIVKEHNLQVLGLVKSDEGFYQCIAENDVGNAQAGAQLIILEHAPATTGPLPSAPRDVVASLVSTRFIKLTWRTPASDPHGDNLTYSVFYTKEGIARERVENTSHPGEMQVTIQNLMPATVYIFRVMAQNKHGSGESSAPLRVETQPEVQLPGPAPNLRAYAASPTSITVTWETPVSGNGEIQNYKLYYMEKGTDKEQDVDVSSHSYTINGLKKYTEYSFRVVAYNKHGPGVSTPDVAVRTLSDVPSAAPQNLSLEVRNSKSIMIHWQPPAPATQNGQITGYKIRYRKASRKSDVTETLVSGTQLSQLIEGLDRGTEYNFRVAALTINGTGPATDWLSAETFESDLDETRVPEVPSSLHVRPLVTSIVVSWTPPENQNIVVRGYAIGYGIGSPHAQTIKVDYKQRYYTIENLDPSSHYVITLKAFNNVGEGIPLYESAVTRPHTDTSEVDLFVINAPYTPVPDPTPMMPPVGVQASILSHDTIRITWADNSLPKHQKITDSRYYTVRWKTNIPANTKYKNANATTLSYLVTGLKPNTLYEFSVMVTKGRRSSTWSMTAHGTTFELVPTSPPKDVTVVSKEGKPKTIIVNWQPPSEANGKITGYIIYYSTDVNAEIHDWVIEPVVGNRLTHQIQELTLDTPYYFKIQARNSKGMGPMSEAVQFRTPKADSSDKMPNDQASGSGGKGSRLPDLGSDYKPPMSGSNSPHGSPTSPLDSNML
Procedure: (C) Binding of Neogenin to bovine serum albumin (Neogenin+BSA), to RGMa (Neogenin+RGMa), and to RGMc (Neogenin+RGMc) in RGMa-AP and in RGMc-AP. Constructs overexpressing His-tagged sRGMa, sRGMc and the extracellular domains of Neogenin (Ec-Neogenin) were coated onto Poly-L-Lysine coated wells. Alkaline Phosphatase (AP)-tagged proteins (EC-Neogenin or RGMa or RGMc) were then added to each well and incubated at 37° C. for 1 h. Each well was washed and equilibrated with AP developing buffer (100 mM NaHCO3, 1 mM MgCl2). The reaction was initiated using AP developing buffer supplemented with p-nitrophenyl phosphate and then stopped following color development by adding 50 μl (0.1M) NaOH. The absorbance of each reaction was measured using a microplate autoreader at 405 nm as described in the Examples. (D) Binding of Neogenin-AP to bovine serum albumin (Neogenin-AP+BSA), to RGMa (Neogenin-AP+RGMa), and to RGMc (Neogenin-AP+RGMc). Competition assay was performed as described in the Examples and above but in which the constructs were reversed.
Using a 96-well microtiter plate (Corning), wells coated with 100 μl (10 μg/mL) of Poly-L-Lysine (Sigma-Aldrich) incubated at 4° C. overnight were then washed 3× with 100 μl of PBST (+0.02% Tween-20). […] The absorbance of each reaction was measured using a microplate autoreader (BioTek EL311 AutoReader) at 405 nm.

[3] = system: EAE-induced mice; assay: Experimental Autoimmune Encephalomyelitis (EAE) mouse model, body condition score; type: in vivo; parameters: clinical severity (body condition score): dose or concentration left out as unconfirmed
[4] = system: optic nerves of adult mice; assay: Optic nerve crush and regeneration model (GAP43 staining); type: in vivo, mouse; settings: 1 μg/ml intraocularly at 3 and 10 days after injury; day 21; vs control proteins
Procedure: Optic nerve crush experiments were performed on animals and recovery assessed by staining for axonal fibres. The optic nerves of adult mice were crushed using fine self-closing forceps. sRGMc (1 μg/ml) or control solution was injected intraocularly at 3 and 10 days after injury. Animals were sacrificed at day 21 and optic nerves were dissected and fixed in 4% PFA. The optic nerves were sectioned longitudinally at 14 microns and stained with GAP43 antibody to stain newly regenerating axons.

[5] = intra-peritoneal injections, vs vehicle

B1: sRGMc: truncated form of RGMc with the GPI anchor sequence removed, released as a soluble protein (SEQ ID NOs: 1 and 3) (protein, listed as Homo sapiens)
chain: CKILRCNAEYVSSTLSLRGGGSSGALRGGGGGGRGGGVGSGGLCRALRSYALCTRRTARTCRGDLAFHSAVHGIEDLMIQHNCSRQGPTAPPPPRGPALPGAGSGLPAPDPCDYEGRFSRLHGRPPGFLHCASFGDPHVRSFHHHFHTCRVQGAWPLLDNDFLFVQATSSPMALGANATATRKLTIIFKNMQECIDQKVYQAEVDNLPVAFEDGSINGGDRPGGSSLSIQTANPGNHVEIQAAYIGTTIIIRQTAGQLSFSIKVAEDVAMAFSAEQDLQLCVGGCPPSQRLSRSERNRRGAITIDTARRLCKEGLPVEDAYFHSCVFDVLISGDPNFTVAAQAALEDARAFLPDLEKLH
For B1, the “expression profile of IL-17 and IFN-γ secreted by CD4+ T cells” value ([1]; PMA and ionomycin stimulated, EAE mice day 10) was “no effect”, the “expression of adhesion markers (ICAM-1 and CD62L) on CD4+ and CD8+ T cells and B cells” value ([1]; naive splenocytes and lymph node cells, vs vehicle) was “does not affect” and the “distribution of effector cells (CD3+, CD8+, CD4+ T cells)” value ([1]; splenocytes day 10, vs vehicle) was “does not alter”. The “distributions and activation of dendritic cells (CD11c+) and B cells (MHC II, CD80+/CD86+)” value ([1]; splenocytes day 10, vs vehicle) was “unaltered”, the “interference with RGMa binding to Neogenin” value [2] was “interferes with RGMa for its binding to Neogenin” and the disease severity [3, 5] was “significantly abrogated disease severity”. For the same molecule, the “incidence of EAE onset” value [3, 5] was “decreased the incidence of EAE onset”, the onset of disease [3, 5] was “delayed the onset of disease” and the “day by which treated animals developed clinical symptoms” value ([3]; intravenous sRGMc at days 3, 6 and 9) was no more than 14 day post-induction. For the same molecule, the “clinical severity of the disease (body condition score)” value ([3]; intravenous sRGMc at days 3, 6 and 9 post-induction, vs vehicle, scored 18 days) was “significant decrease in clinical severity”, the “clinical severity (body condition score)” value ([3]; sRGMc every three days, vs PBS, FIG. 6B) was “markedly reduced” and the “regeneration of axonal fibres at the site of injury (GAP43)” value [4] was “promote the regeneration of axonal fibres”.
